In patent US20180207278A1 (Amgen, published 2018):

What was measured:
[1] = biological target: T1, GM-CSF (immobilized on the SPR sensor chip); test: SPR (Biacore 3000, GM-CSF immobilized on CM5 chip); antibody 5.4 mg/ml in 1xPBS after 14 days at 55 C
T1 construct: also called immobilized GM-CSF; Granulocyte-macrophage colony stimulating factor
Description: (§1) The surface plasmon resonance (SPR) method was established to determine the degree of antibody binding activity to immobilized GM-CSF (Biacore 3000/CM5 sensor chip/HBS-EP running buffer). The SPR method was qualified by performing a nine-point range test, from which precision (six replicate injections) and linearity (triplicate standard curves) were determined and tested.
(§2) […] Previous studies indicated stabilizing effects of: 20 mM acetate pH 5; 20 mM histidine pH 6; 250 mM glutamic acid; 250 mM threonine, 6% (w/v) sorbitol and 6% (w/v) mannitol. […] Antibody in 1×PBS was included as a control. At T0, T7 and T14 (days), samples were analyzed by SE-HPLC and SPR.

[2] = biological target: T1, GM-CSF (immobilized on the SPR sensor …); test: SPR (Biacore 3000, GM-CSF immobilized on CM5 chip); antibody 5.4 mg/ml in 20 mM acetate + 250 mM threonine after 14 days at 55 C
Description: as §1, §2

[3] = biological target: T1, GM-CSF (immobilized on the SPR sensor …); test: SPR (Biacore 3000, GM-CSF immobilized on CM5 chip); antibody 5.4 mg/ml in 20 mM histidine + 250 mM threonine after 14 days at 55 C
[4] = biological target: T1, GM-CSF (immobilized on the SPR sensor …); test: SPR (Biacore 3000, GM-CSF immobilized on CM5 chip); antibody 5.4 mg/ml in 20 mM acetate + 250 mM glutamic acid after 14 days at 55 C
Description: as §1, §2

[5] = biological target: T1, GM-CSF (immobilized on the SPR sensor …); test: SPR (Biacore 3000, GM-CSF immobilized on CM5 chip); antibody 5.4 mg/ml in 20 mM histidine + 250 mM glutamic acid after 14 days at 55 C
Description: as §1, §2

[6] = biological target: T1, GM-CSF (immobilized on the SPR sensor …); test: SPR (Biacore 3000, GM-CSF immobilized on CM5 chip); antibody 5.4 mg/ml in formulations 5-16 of Table 1 (all with mannitol or sorbitol) after 14 days at 55 C
Description: as §1, §2

B1: human monoclonal IgG1 antibody that binds to and neutralizes human GM-CSF (antibody, V domains shown)
VH: QVQLVQSGAEVKKPGASVKVSCKAFGYPFTDYLLHWVRQAPGQGLEWVGWLNPYSGDTNYAQKFQGRVTMTRDTSISTAYMELSRLRSDDTAVYYCTRTTLISVYFDYWGQGTMVTVSS
VL: DIQMTQSPSSVSASVGDRVTIACRASQNIRNILNWYQQRPGKAPQLLIYAASNLQSGVPSRFSGSGSGTDFTLTINSLQPEDFATYYCQQSYSMPRTFGGGTKLEIKR
notes: also called the antibody; anti-GM-CSF antibody
For B1, the “binding activity relative to T0” value [1] was 62%, the “binding activity relative to T0” value [2] was 26% and the “binding activity relative to T0” value [3] was 85%. The “binding activity relative to T0” value [4] was 19%, the “binding activity relative to T0” value [5] was 91% and the “binding activity relative to T0” value [6] was > 93%.
